B1: 4H2667-bH (peptide)
chain: DKIQELKKEIEELKRKIWELKKENQELER
B2: 4H2729-bH (peptide)
chain: DKIQELKKENEELERKIWELKKEIQELER

What was measured:
Test in all cases: two-hybrid library CCNG1;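 also: natural log of median RNA to DNA barcode read ratio; higher means stronger binding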
[1] = molecular target: T1, 4H2667-bH
T1 chain: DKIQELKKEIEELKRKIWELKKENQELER

[2] = molecular target: T2, 4H2697-bH
T2 chain: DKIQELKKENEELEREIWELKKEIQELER

[3] = molecular target: T3, 4H2729-bH
T3 chain: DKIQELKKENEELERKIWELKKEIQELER

[4] = molecular target: T4, 4H3112-bH
T4 chain: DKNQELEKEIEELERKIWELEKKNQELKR

[5] = molecular target: T5, 4H3185-bH
T5 chain: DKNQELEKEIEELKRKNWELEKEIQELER

[6] = molecular target: T6, 4H3189-bH
T6 chain: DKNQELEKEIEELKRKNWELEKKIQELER

[7] = molecular target: T7, 4H331-bH
T7 chain: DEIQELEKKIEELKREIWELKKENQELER

[8] = molecular target: T8, 4H3354-bH
T8 chain: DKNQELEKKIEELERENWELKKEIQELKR

[9] = molecular target: T9, 4H338-bH
T9 chain: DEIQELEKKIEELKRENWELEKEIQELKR

[10] = molecular target: T10, 4H3427-bH
T10 chain: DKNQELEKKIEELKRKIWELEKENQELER

[11] = molecular target: T11, 4H3606-bH
T11 chain: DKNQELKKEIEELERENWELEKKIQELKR

[12] = molecular target: T12, 4H370-bH
T12 chain: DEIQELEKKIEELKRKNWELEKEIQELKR

[13] = molecular target: T13, 4H3782-bH
T13 chain: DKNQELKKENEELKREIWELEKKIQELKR

[14] = molecular target: T14, 4H3843-bH
T14 chain: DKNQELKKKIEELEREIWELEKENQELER

[15] = molecular target: T15, 4H3843-bN
T15 chain: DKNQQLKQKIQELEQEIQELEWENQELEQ

[16] = molecular target: T16, 4H3855-bH
T16 chain: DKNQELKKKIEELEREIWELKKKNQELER

[17] = molecular target: T17, 4H4001-bH
T17 chain: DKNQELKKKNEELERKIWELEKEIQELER

[18] = molecular target: T18, 4H454-bH
T18 chain: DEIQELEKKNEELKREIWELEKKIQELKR

[19] = molecular target: T19, 4H462-bH
T19 chain: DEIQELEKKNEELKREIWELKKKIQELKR

[20] = molecular target: T20, 4H568-bH
T20 chain: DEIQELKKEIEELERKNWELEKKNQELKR

[21] = molecular target: T21, 4H607-bH
T21 chain: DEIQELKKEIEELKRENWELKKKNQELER

[22] = molecular target: T22, 4H687-bH
T22 chain: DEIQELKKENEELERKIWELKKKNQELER

[23] = molecular target: T23, 4H717-bH
T23 chain: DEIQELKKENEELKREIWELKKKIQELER

[24] = molecular target: T24, 4H72-bH
T24 chain: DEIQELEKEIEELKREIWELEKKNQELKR

[25] = molecular target: T25, 4H754-bH
T25 chain: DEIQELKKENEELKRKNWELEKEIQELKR

[26] = molecular target: T26, 4H797-bH
T26 chain: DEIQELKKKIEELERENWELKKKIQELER

[27] = molecular target: T27, 4H883-bH
T27 chain: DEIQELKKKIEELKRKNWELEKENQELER

[28] = molecular target: T28, 4H908-bH
T28 chain: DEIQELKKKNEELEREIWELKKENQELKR

[29] = molecular target: T29, 4H918-bH
T29 chain: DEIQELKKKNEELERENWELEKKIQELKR

[30] = molecular target: T30, 4H953-bH
T30 chain: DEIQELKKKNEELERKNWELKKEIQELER

[31] = molecular target: T31, 4H967-bH
T31 chain: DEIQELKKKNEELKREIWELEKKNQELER

[32] = molecular target: T32, O4-bN
T32 chain: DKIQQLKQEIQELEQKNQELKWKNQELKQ

Binder	interaction score [3]	interaction score [4]	interaction score [5]	interaction score [7]	interaction score [8]	interaction score [9]	interaction score [10]	interaction score [13]	interaction score [16]	interaction score [17]	interaction score [18]	interaction score [20]	interaction score [21]	interaction score [22]	interaction score [23]	interaction score [24]	interaction score [25]	interaction score [26]	interaction score [27]	interaction score [28]	also measured
B1	1.75	-0.422	0.789	1.71	-0.302	1.42	1.38	-0.0673	0.693	-2.94	0.0385	0.0192	0.145	-0.168	-0.859	0.612	-0.933	-0.539	0.434	-1.3	interaction score [1]: 0.801; interaction score [2]: 1.31; interaction score [6]: -0.454; interaction score [11]: 1.83; interaction score [12]: 0.226; interaction score [14]: 1.84; interaction score [15]: 1.56; interaction score [19]: 1.01; interaction score [29]: -2.64; interaction score [30]: 0.0882; interaction score [31]: -0.166; interaction score [32]: -0.678
B2	1.2	0.258	-3.12	-1.61	-0.446	-0.279	0.368	0.82	0.286	-0.467	1.36	-0.0225	-1.66	-0.723	-0.127	-1.03	0.0247	-0.381	-0.885	-0.811	interaction score [29]: 0.482; interaction score [30]: -0.638; interaction score [31]: 0.548

From paper PMC10397247
